{"source": "patent US5658784", "about": "“Nucleic acid encoding transcription factor p300 and uses of p300” (Dana-Farber Cancer Institute, Inc., dated 1997)", "target": "p300 (endogenous human E1A-associated 300 kD protein) (human)", "experiment": "co-immunoprecipitation with anti-E1A M73 from 35S labelled infected U-2 OS cells"}
{"binder": "E1A proteins of adenovirus dl646 (missing amino acids 30-85) (other) MRHIICHGGVITEEMAASLLDQLIEEVLAAPGSPEPPHLSRQPEQPEQRALGPVSMPNLVPEVIDLTCHEAGFPPSDDEDEEGEEFVLDYVEHPGHGCRSCHYHRRNTGDPDIMCSLCYMRTCGMFVYSPVSEPEPEPEPEPEPARPTRRPKMAPAILRRPTSPVSRECNSSTDSCDSGPSNTPPEIHPVVPLCPIKPVAVRVGGRRQAVECIEDLLNEPGQPLDLSCKRPRP", "values": [{"measurement": "binding result", "result": "no binding"}]}
